{"source": "patent US20220064294A1", "about": "(ARCUS BIOSCIENCES, published 2022)", "key": {"cTIGIT-His": {"target": "T1, cTIGIT-His (cynomolgus monkey)", "T1 construct": "also called His-tagged cyno TIGIT protein extracellular domain; soluble cTIGIT-His", "T1 chain": "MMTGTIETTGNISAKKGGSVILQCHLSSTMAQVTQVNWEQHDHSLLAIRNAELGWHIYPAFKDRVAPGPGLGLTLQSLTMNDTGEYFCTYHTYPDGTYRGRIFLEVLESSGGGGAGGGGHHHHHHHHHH", "assay": "SPR, Biacore T200, antibody captured on anti-human IgG chip, cTIGIT-His as analyte", "procedure": "(§1) The purified, full-length antibodies Hu24F8.1-IgG1.AA (containing VH1+VL2) and Hu24F8.2-IgG1.AA (containing VH2+VL2), together with the full-length chimera antibody of 24F8 mouse VH+VL and human IgG1/kappa constant domains (Ch24F8), were analyzed by SPR using a Biacore T200 instrument with antibody capture using an anti-human IgG coated chip and soluble hTIGIT-His or cTIGIT-His as the analyte."}, "[1]": {"target": "T2, human TIGIT, full length, on cells (human, UniProt Q495A1 22-244)", "T2 sequence": "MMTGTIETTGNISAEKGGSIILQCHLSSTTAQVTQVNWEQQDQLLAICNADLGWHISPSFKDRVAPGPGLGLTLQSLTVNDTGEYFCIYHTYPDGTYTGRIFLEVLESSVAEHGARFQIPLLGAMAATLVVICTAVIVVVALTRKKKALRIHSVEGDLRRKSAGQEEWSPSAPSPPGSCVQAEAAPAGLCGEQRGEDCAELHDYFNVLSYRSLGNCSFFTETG", "assay": "cell-based or functional assay"}, "[2]": {"target": "T2, human TIGIT, full length, on cells", "assay": "flow cytometry on stable CHO-K1 cells expressing human TIGIT (clone 2A7); human TIGIT, CHO-K1 clone 2A7, n=8", "procedure": "(§2) Binding of antibodies Hu24F8.1-IgG1.AA and Hu24F8.2-IgG1.AA to TIGIT expressed on cell surface was examined by flow cytometry. Cells expressing TIGIT on cell surface were collected and incubated in 100 μL of HBSS Buffer in the presence (or absence) of various concentrations of antibody for 1 hr at 4° C. After washing with HBSS, antibody binding on cells was detected with 2 μg/mL of Alexa488-labeled goat anti-human IgG antibody (ThermoFisher Scientific, Cat #A-11013) for 30 min at 4° C. Cells were then washed and resuspended in PBS and subjected to flow cytometry using a Attune NxT flow cytometer (ThermoFisher Scientific, Waltham, Mass.). GeoMean of fluorescence intensity was obtained for the whole single cell population, and for transient transfection, non-transfected cells were used to gate for the positive binding cell population to obtain percent of positive cells. Data was calculated by GraphPad Prism using the standard 4-parameter curve fitting.\n(§3) Stable CHO-K1 cell lines expressing human TIGIT (clone 2A7) and cyno TIGIT (clone C10) were used to test Hu24F8.1-IgG1.AA and Hu24F8.2-IgG1.AA for their binding to human TIGIT and cyno TIGIT, respectively, as described above. […] Hu24F8.2-IgG1.AA bound to human TIGIT with an EC₅₀ 0.29±0.15 nM (n=8) (FIG. 3A) and to cyno TIGIT with an EC₅₀ of 0.35±0.16 nM (n=6) (FIG. 3B)."}, "[3]": {"target": "T2, human TIGIT, full length, on cells", "assay": "flow cytometry, inhibition of hCD155-Fc binding to CHO-hTIGIT cells", "procedure": "The activity of Hu24F8.1-IgG1.AA and Hu24F8.2-IgG1.AA to block the interaction of TIGIT with CD155 was analyzed by flow cytometry using CHO cells stably overexpressing human TIGIT (CHO-hTIGIT) and human CD155-Fc fusion recombinant soluble protein (hCD155-Fc), as described in Example 1. […] The IC₅₀ for Hu24F8.1-IgG1.AA to block the TIGIT-CD155 interaction was 0.68 nM, and for Hu24F8.2-IgG1.AA it was 0.67 nM."}, "[4]": {"target": "T3, cynomolgus monkey TIGIT, full length, on cells (cynomolgus monkey)", "T3 construct": "Whole entry of 312 amino acids; also called cyno TIGIT; cTIGIT", "assay": "flow cytometry on stable CHO-K1 cells expressing cyno TIGIT (clone C10); cyno TIGIT, CHO-K1 clone C10, n=6", "procedure": "as §2, §3"}, "hTIGIT-His": {"target": "T4, hTIGIT-His (human)", "T4 construct": "also called His-tagged human TIGIT protein extracellular domain; soluble hTIGIT-His", "T4 chain": "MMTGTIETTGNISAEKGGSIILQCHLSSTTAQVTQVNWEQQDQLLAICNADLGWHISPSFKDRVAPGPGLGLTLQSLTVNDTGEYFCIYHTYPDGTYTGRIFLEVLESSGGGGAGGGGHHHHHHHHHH", "assay": "SPR, Biacore T200, antibody captured on anti-human IgG chip, hTIGIT-His as analyte", "procedure": "as §1"}}, "data": [{"binder": "Hu24F8.1-IgG1.AA (antibody, V domains shown, IgG1/kappa; also called Hu24F8.1 (VH1+VL2), IgG1/kappa with L234A/L235A) VH: QVQLQESGPGLVKPSETLSLTCAVYGYSITSGYSWHWIRQPPGKGLEWIGYVHYSGSTNYNPSLKSRVTISVDTSKNQFSLKLSSVTAADTAVYYCARMDYGNYGGAMDYWGQGTLVTVSS VL: EIVMTQSPATLSVSPGERATLSCKASQDVRTAVAWYQQKPGQAPRLLIYSASYRYTGIPARFSGSGSGTEFTLTISSLQSEDFAVYYCQQYYSTQWTFGGGTKVEIKR", "values": [{"measurement": "Kd", "setting": "cTIGIT-His", "value": 1.74, "unit": "nM"}, {"measurement": "koff", "setting": "cTIGIT-His", "value": 0.0014, "unit": "s⁻¹"}, {"measurement": "kon", "setting": "cTIGIT-His", "value": 806000, "unit": "M⁻¹ s⁻¹"}, {"measurement": "EC50 of luciferase reporter activity, TIGIT/CD155 Blockade Bioassay (Jurkat cells overexpressing TIGIT with CD155 aAPC/CHO-K1 cells)", "setting": "[1]", "value": 3.35, "unit": "nM"}, {"measurement": "EC50", "setting": "[2]", "value": 0.447, "unit": "nM"}, {"measurement": "IC50", "setting": "[3]", "value": 0.68, "unit": "nM"}, {"measurement": "EC50", "setting": "[4]", "value": 0.237, "unit": "nM"}, {"measurement": "Kd", "setting": "hTIGIT-His", "value": 0.144, "unit": "nM"}, {"measurement": "koff", "setting": "hTIGIT-His", "value": 0.000145, "unit": "s⁻¹"}, {"measurement": "kon", "setting": "hTIGIT-His", "value": "1.01e+06", "unit": "M⁻¹ s⁻¹"}]}]}
